# Measured values: the supplement of paper PMC10065799, “High-throughput profiling of sequence recognition by tyrosine kinases and SH2 domains using bacterial peptide display” (eLife, 2023)
# Biological target: Fyn (UniProt P06241)
# Test: phosphorylation enrichment, bacterial display (enrichment ratio); higher = better substrate or ligand; peptides without Tyr show the background
# 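Throughout, for SH2 binding enrichment of the phosphorylated peptide, bacterial display: peptide library displayed on the E. coli surface as eCPX fusions, selected cells deep-sequenced, score is each peptide's frequency after selection divided by its frequency in the input.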
# 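Throughout, for phosphorylation enrichment, bacterial display: 11-residue human phosphosite peptides and single-mutation variants displayed on the E. coli surface, counted by deep sequencing, each peptide's frequency after selection divided by its frequency in the unselected input library; frequency after pTyr selection over input frequency; kinase dosed for 20-30% of maximal phosphorylation in three min.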
# Chain of Fyn (P06241 whole entry, looked up): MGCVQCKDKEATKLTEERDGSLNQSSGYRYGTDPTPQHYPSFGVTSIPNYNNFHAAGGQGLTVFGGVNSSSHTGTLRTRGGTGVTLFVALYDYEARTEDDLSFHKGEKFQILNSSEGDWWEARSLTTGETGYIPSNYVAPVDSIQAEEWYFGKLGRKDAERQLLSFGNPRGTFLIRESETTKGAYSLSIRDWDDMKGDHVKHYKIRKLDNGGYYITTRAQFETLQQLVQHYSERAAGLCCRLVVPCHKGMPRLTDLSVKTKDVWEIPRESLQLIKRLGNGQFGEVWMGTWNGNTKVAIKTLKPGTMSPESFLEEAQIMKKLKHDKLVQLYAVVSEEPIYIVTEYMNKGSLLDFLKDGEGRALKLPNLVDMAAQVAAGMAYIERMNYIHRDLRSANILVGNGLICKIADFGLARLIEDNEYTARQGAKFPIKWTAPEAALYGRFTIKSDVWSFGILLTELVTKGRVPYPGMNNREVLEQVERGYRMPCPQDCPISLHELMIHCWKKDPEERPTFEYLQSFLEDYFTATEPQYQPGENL
row,Sequence,phosphorylation enrichment
1,LKEIRYPPYTD [ALDH3B2_Y362_H361R],0.31
2,RHTRSYDFMEG [FGF7_Y56_YF],0.823
3,RGRSTYYWPSP [GAGE12J_Y9_R13S],0.938
4,SVTCTYCPALN [TP53_Y126_S127C],0.545
5,EYFENYIEELK [PARP4_Y218],0.539
6,CNSFRYGGGGG [NPPA_Y151],0.439
7,TKEPKYEGAGS [KIAA1210_Y1615],0.339
8,IVAREYFSEAD [CAMK2A_Y106_YF],0.538
9,HSSPVYVGRVV [TGM2_Y219_R214H],3
10,GEEIKDMLWLS [OTC_Y55_Y55D],0.475
11,NDDDVYRSLEE [VAV2_Y142],0.53
12,PLGPLYASSNP [INSR_Y992],1.27
13,AGIENYTSRFG [NKD2_Y256],0.421
14,VCDALYPPGPP,0.306
15,EVESPYEVRDY [GIGYF2_Y1168_H1171R],5.17
16,RPDSPYSRPHD [DOK2_Y271],0.317
17,EPVSDYINASI [PTPN11_Y304_N308S],0.385

row,Sequence,phosphorylation enrichment
1,RIFDFYSARKA [STOX1_Y858_YF],0.849
2,SFPPTYRFERG [INPPL1_Y661_YF],0.412
3,SLEKSYELLDG [ACTB_Y240_P243L],0.533
4,LKSEMYQKLLK [RGS13_Y146],0.56
5,PELINYHQPNS [BTK_Y361_H364P],0.597
6,ISTAGYSFPEL [EDAR_Y406_I408F],0.437
7,GSSEGYLHMVH [NIPBL_Y247_D246G],0.368
8,NCLREYVAGRF [CRB1_Y711],0.487
9,LFIDSYEKDVA [PGM1_Y521_YF],1.41
10,WDLSEYSFKDP [ITGA3_Y237_YF],2.17
11,AARVSYWLASG [DCHS1_Y1582_R1583W],0.573
12,LITTLYIDFLG [KCNQ1_Y267_G269D],1.41
13,CPSLLYSPVSS [CAMKK2_Y128_P127L],1.87
14,GEEIKYMLWLS [OTC_Y55],0.493
15,MGRVNYGAYIN [GLB1_Y485],0.463
16,LDPMVYMNDTS [PTK2B_Y834_K838T],0.588

# Biological target: c-Src SH2
# Test: SH2 binding enrichment of the phosphorylated peptide, bacterial display (enrichment ratio); higher = better substrate or ligand; peptides without Tyr show the background
row,Sequence,SH2 binding enrichment
1,CNSFRYGGGGG [NPPA_Y151],0.586
2,TKEPKYEGAGS [KIAA1210_Y1615],0.597
3,IVAREYFSEAD [CAMK2A_Y106_YF],0.566
4,HSSPVYVGRVV [TGM2_Y219_R214H],0.539
5,AGIENYTSRFG [NKD2_Y256],0.485
6,EVESPYEVRDY [GIGYF2_Y1168_H1171R],0.626
7,RIFDFYSARKA [STOX1_Y858_YF],0.529
8,LKSEMYQKLLK [RGS13_Y146],0.544
9,PELINYHQPNS [BTK_Y361_H364P],0.704
10,NCLREYVAGRF [CRB1_Y711],0.531
11,WDLSEYSFKDP [ITGA3_Y237_YF],0.661
12,AARVSYWLASG [DCHS1_Y1582_R1583W],0.527
13,LITTLYIDFLG [KCNQ1_Y267_G269D],0.698
14,MGRVNYGAYIN [GLB1_Y485],1.22

# Now from value to sequence:
row,SH2 binding enrichment,Sequence
1,0.555,LKEIRYPPYTD [ALDH3B2_Y362_H361R]
2,1.92,RHTRSYDFMEG [FGF7_Y56_YF]
3,0.373,RGRSTYYWPSP [GAGE12J_Y9_R13S]
4,1.19,SVTCTYCPALN [TP53_Y126_S127C]
5,0.38,EYFENYIEELK [PARP4_Y218]
6,0.501,GEEIKDMLWLS [OTC_Y55_Y55D]
7,0.606,NDDDVYRSLEE [VAV2_Y142]
8,0.75,PLGPLYASSNP [INSR_Y992]
9,0.62,VCDALYPPGPP
10,1.29,RPDSPYSRPHD [DOK2_Y271]
11,0.512,EPVSDYINASI [PTPN11_Y304_N308S]
12,0.442,SFPPTYRFERG [INPPL1_Y661_YF]
13,4.69,SLEKSYELLDG [ACTB_Y240_P243L]
14,6.7,ISTAGYSFPEL [EDAR_Y406_I408F]
15,0.477,GSSEGYLHMVH [NIPBL_Y247_D246G]
16,0.787,LFIDSYEKDVA [PGM1_Y521_YF]
17,1.07,CPSLLYSPVSS [CAMKK2_Y128_P127L]
18,0.346,GEEIKYMLWLS [OTC_Y55]
19,1.05,LDPMVYMNDTS [PTK2B_Y834_K838T]

# Biological target: SHP2-C SH2
# Test: as above
row,Sequence,SH2 binding enrichment
1,CNSFRYGGGGG [NPPA_Y151],1.29
2,TKEPKYEGAGS [KIAA1210_Y1615],0.719
3,IVAREYFSEAD [CAMK2A_Y106_YF],0.867
4,HSSPVYVGRVV [TGM2_Y219_R214H],1.22
5,AGIENYTSRFG [NKD2_Y256],0.625
6,EVESPYEVRDY [GIGYF2_Y1168_H1171R],0.885
7,RIFDFYSARKA [STOX1_Y858_YF],0.538
8,LKSEMYQKLLK [RGS13_Y146],0.523
9,PELINYHQPNS [BTK_Y361_H364P],0.763
10,NCLREYVAGRF [CRB1_Y711],0.684
11,WDLSEYSFKDP [ITGA3_Y237_YF],1.29
12,AARVSYWLASG [DCHS1_Y1582_R1583W],0.733
13,LITTLYIDFLG [KCNQ1_Y267_G269D],0.96
14,MGRVNYGAYIN [GLB1_Y485],1.19

# Continued, values first:
row,SH2 binding enrichment,Sequence
1,0.729,LKEIRYPPYTD [ALDH3B2_Y362_H361R]
2,1.2,RHTRSYDFMEG [FGF7_Y56_YF]
3,0.472,RGRSTYYWPSP [GAGE12J_Y9_R13S]
4,1.35,SVTCTYCPALN [TP53_Y126_S127C]
5,0.785,EYFENYIEELK [PARP4_Y218]
6,0.584,GEEIKDMLWLS [OTC_Y55_Y55D]
7,0.748,NDDDVYRSLEE [VAV2_Y142]
8,0.709,PLGPLYASSNP [INSR_Y992]
9,0.675,VCDALYPPGPP
10,0.422,RPDSPYSRPHD [DOK2_Y271]
11,0.593,EPVSDYINASI [PTPN11_Y304_N308S]
12,0.767,SFPPTYRFERG [INPPL1_Y661_YF]
13,0.729,SLEKSYELLDG [ACTB_Y240_P243L]
14,0.957,ISTAGYSFPEL [EDAR_Y406_I408F]
15,0.9,GSSEGYLHMVH [NIPBL_Y247_D246G]
16,0.728,LFIDSYEKDVA [PGM1_Y521_YF]
17,0.682,CPSLLYSPVSS [CAMKK2_Y128_P127L]
18,0.714,GEEIKYMLWLS [OTC_Y55]
19,0.668,LDPMVYMNDTS [PTK2B_Y834_K838T]

# Biological target: Grb2 SH2 (UniProt P62993)
# Test: as above
row,Sequence,SH2 binding enrichment
1,CNSFRYGGGGG [NPPA_Y151],0.692
2,TKEPKYEGAGS [KIAA1210_Y1615],0.863
3,IVAREYFSEAD [CAMK2A_Y106_YF],0.9
4,HSSPVYVGRVV [TGM2_Y219_R214H],0.806
5,AGIENYTSRFG [NKD2_Y256],0.767
6,EVESPYEVRDY [GIGYF2_Y1168_H1171R],0.674
7,RIFDFYSARKA [STOX1_Y858_YF],0.75
8,LKSEMYQKLLK [RGS13_Y146],0.832
9,PELINYHQPNS [BTK_Y361_H364P],1.07
10,NCLREYVAGRF [CRB1_Y711],0.915
11,WDLSEYSFKDP [ITGA3_Y237_YF],0.916
12,AARVSYWLASG [DCHS1_Y1582_R1583W],1.17
13,LITTLYIDFLG [KCNQ1_Y267_G269D],1.13
14,MGRVNYGAYIN [GLB1_Y485],4.77

# The remaining lines, values ahead:
row,SH2 binding enrichment,Sequence
1,0.883,LKEIRYPPYTD [ALDH3B2_Y362_H361R]
2,0.944,RHTRSYDFMEG [FGF7_Y56_YF]
3,0.647,RGRSTYYWPSP [GAGE12J_Y9_R13S]
4,1.24,SVTCTYCPALN [TP53_Y126_S127C]
5,0.657,EYFENYIEELK [PARP4_Y218]
6,0.807,GEEIKDMLWLS [OTC_Y55_Y55D]
7,1,NDDDVYRSLEE [VAV2_Y142]
8,0.641,PLGPLYASSNP [INSR_Y992]
9,0.863,VCDALYPPGPP
10,0.729,RPDSPYSRPHD [DOK2_Y271]
11,1.06,EPVSDYINASI [PTPN11_Y304_N308S]
12,0.868,SFPPTYRFERG [INPPL1_Y661_YF]
13,1.01,SLEKSYELLDG [ACTB_Y240_P243L]
14,0.854,ISTAGYSFPEL [EDAR_Y406_I408F]
15,0.794,GSSEGYLHMVH [NIPBL_Y247_D246G]
16,0.835,LFIDSYEKDVA [PGM1_Y521_YF]
17,0.784,CPSLLYSPVSS [CAMKK2_Y128_P127L]
18,0.646,GEEIKYMLWLS [OTC_Y55]
19,3.37,LDPMVYMNDTS [PTK2B_Y834_K838T]
